Measurements: the supplement of paper PMC11865577

Key:
Assay in all cases: pull-down binding Z-score (relative to library population); higher = stronger binding
[1] = test system: TO-3-N3 (biotin conjugate); details: RNA library: Library-2
Summary of the method: (§1)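 A heat-folded, dye-end-labelled (Cy5 or Cy3) RNA library (1 μg, phosphate/NaCl/KCl buffer) was exposed for 60 min at 25 °C to streptavidin beads holding 100 pmol of biotin-conjugated small molecule. RNA retained on the beads was eluted in hot SDS and hybridised to a DNA barcode microarray for 20 h at 55.5 °C. Binding scores were Z-scores against the library mean and standard deviation, calculated after subtracting beads alone and taking trimmed means of replicate probes.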

[2] = test system: TO-N3-2 (biotin conjugate); details: RNA library: Library-2
Summary of the method: as §1

[3] = test system: TO-3-N3-2 (biotin conjugate); details: RNA library: Library-2
Summary of the method: as §1

[4] = test system: G-clamp-N3 (biotin conjugate); details: RNA library: Library-1 (pre-miRNA loops + repeats)
Summary of the method: as §1

TO-N3 (biotin conjugate) = details: RNA library: Library-2
Summary of the method: as §1

Sequence	pull-down binding Z-score [1]	pull-down binding Z-score [2]	pull-down binding Z-score [3]	pull-down binding Z-score [4]	pull-down binding Z-score (TO-N3 (biotin conjugate))
UAGGCUGUUUCCAUCUGUGAGGCCUA [hsa-mir-26a-2]	-0.164	-0.00853	-0.375	-0.141	-0.233
AGGGCAGGGGUGUGGCU [hsa-mir-4751]	3.21	1.93	2.67	0.725	2.8
GGACUUGCGGUUCA [hsa-mir-8057]	-0.0023	0.109	-0.281	-1.11	-0.0278
UUUUCAUGACAACCCUAUAUGGGAAAAUGUUGUGAAAA [hsa-mir-3646]	-0.839	-1.78	-0.448	-0.346	-1.1
CCUGCCUCAGAACUACUGAACAGAGUCACUGGGUGUGGA [hsa-mir-1289-2]	-0.292	0.785	-0.00545	0.873	0.181
